Measured values published in the supplement of paper PMC10567573.

B1: KRT18 (parent)
chain: RAQYDELARKNREELDKYWSQQIE
B2: INTS3 (parent)
chain: FSDDEEDLNSKGKKREFRFHPIKE

Variants of: B1
Experiment: protein stability index of a GFP-peptide fusion (GPS, HEK-293T) (PSI 1-6); higher = more stable
Conditions: c terminus: a fixed tail appended
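Further: lentivirally expressed fusions sorted by FACS into six bins by GFP to DsRed ratio, PSI derived from sequencing read proportions per bin multiplied by bin number.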

Protein stability index: each site, then its substitutions
W19: Y 4.58
Q21: E 2.88 | L 2.74 | D 2.88 | K 3.06 | G 3.58 | S 3.4 | Y 3.08 | C 4 | M 2.98 | V 3.17 | F 3.62 | N 3.71 | P 4.25 | R 3.81 | I 3.05 | W 3.28 | T 3.76 | A 3.05 | H 3.41
Q22: N 3.31 | P 3.83 | R 3.78 | L 3.15 | F 2.75 | G 3.68 | A 3.44 | M 2.67 | E 3.7 | W 4 | V 3.08 | Y 3.44 | T 3.99 | S 3.82 | C 2.31 | I 3.37 | H 4.67 | D 4.67 | K 4.27
E24: G 3.77 | A 2.48 | F 3.16 | D 3.8 | K 3.34 | Q 2.94 | P 3.87 | T 3.36 | Y 2.73 | V 3.01 | S 3.27 | I 3.12 | M 2.31 | H 3.72 | R 2.3 | W 2.5 | L 2.23 | C 3.05 | N 3.13
I23: V 4.14 | A 3.97 | G 4.41 | C 3.45 | M 2.28 | R 4.68 | D 5.28 | E 5.1 | P 4.96 | W 3.97 | Q 4.43 | F 2.23 | N 4.39 | H 2.23 | L 2.21 | K 5.03 | T 4.69 | S 4.96
S20: I 2.31 | G 3.97 | C 2.63 | P 3.85 | V 3.18 | L 2.33 | M 2.56 | D 4.29 | A 3.15 | H 1.59 | T 2.79 | Q 2.17 | K 1.22 | R 2.17 | N 2.79 | W 2.6 | Y 2.79 | E 4.23 | F 3.04

Variants of: B2
Experiment: as above
Conditions: c terminus: a fixed tail appended

Protein stability index, by site and new letter:
K14: V 2.03 | I 1.88 | H 2.86 | Q 3.1 | T 3.46 | N 3.27 | F 2.13 | Y 2.48 | A 3.01 | P 3.46
D7: E 3.14 | A 2.59 | V 2.7 | Y 2.23 | S 2.66 | Q 2.15 | N 2.29
E24: L 2.14 | K 2.14 | I 2.06 | M 1.8 | W 2.45 | R 2.31 | S 2.11 | P 1.76
F19: Q 5.14 | L 4.67 | W 3.72 | I 4.68 | E 5.59
N9: I 2.06 | W 2.12 | Y 2.29 | D 3.79 | V 3.83 | E 3.6 | L 2.99 | R 2.76 | A 3.15 | M 2.66
D3: Q 2.58 | K 2.59 | N 2.57 | V 2.61 | P 2.29 | A 2.19 | M 2.55 | R 2.19
F17: R 4.97 | I 4.9 | K 5.12 | L 4.76 | C 5.31 | P 5.06 | E 5.03 | H 5.01
R15: K 3.89 | W 2.42 | T 3.38 | H 2.26 | I 3.47 | S 3.6 | N 3.49 | G 3.2 | Y 2.56
K23: S 3.19 | M 3.5 | H 3.34 | N 3.18 | W 2.75 | A 3.81 | R 2.68 | F 3.4 | P 3.06 | T 3.52 | D 4.1
R18: C 4.57 | E 5.1 | D 4.94 | F 3.27 | Y 4.36 | M 4.9 | K 4.63 | A 4.33 | S 4.12 | N 5.14 | W 3.35 | H 4.85 | P 4.76
S10: N 3.37 | M 3.56 | Y 2.59 | G 2.9 | L 2.57 | W 3.56 | K 2.38 | T 2.87 | A 2.58 | F 2.45 | R 2.41 | H 2.64 | Q 3.43 | V 2.75 | I 2.17
K11: P 3.38 | I 3.48 | A 3.62 | T 3.35 | V 2.89 | R 3.2 | L 2.73
P21: A 3.98 | V 3.88 | Y 3.73 | L 4.25 | D 3.76 | G 4.16
K13: Q 3.29 | Y 3.02 | S 3.06 | T 3.11 | P 2.85 | E 3.6 | G 3.42 | D 3.4 | C 2.89
S2: C 2.8 | F 2.31 | A 3.14 | W 2.33 | N 2.92 | R 2.14 | M 2.6 | I 2.39 | H 2.3 | P 2.53 | E 3.39
D4: P 2.53 | I 2.38 | A 2.72 | N 2.82 | Y 2.51 | V 2.23 | M 2.4 | C 2.4 | Q 2.9 | T 2.56
E6: P 2.36 | Q 2.29 | C 2.62 | G 2.7 | N 2.1 | D 2.8 | M 2.18 | A 2.6 | Y 2.24 | L 2.69 | R 2.07 | I 2.27 | W 2.32
G12: M 2.58 | E 3.02 | Q 3.2 | A 2.67 | R 2.14 | T 2.44 | F 1.91 | Y 2.4 | L 2.29
E5: D 2.68 | M 2.61 | S 2.1 | C 2.49 | F 2.41 | A 2.81 | R 2 | G 2.44 | V 2.9 | W 1.88
E16: W 2.45 | Y 2.61 | A 2.25 | I 2.58 | T 2.67 | C 2.37 | D 4 | R 2.23 | S 2.93 | K 3.69 | F 3.05 | V 2.89
L8: C 2.99 | A 3.35 | P 3.4 | I 2.83 | H 2.73 | E 3.4 | Q 3.44 | T 3.23 | Y 3 | G 3.29 | N 2.99 | W 2.84 | F 2.75 | R 2.94
F1: M 2.58 | Y 2.94 | V 3.29 | T 3.05 | K 2.33 | N 3.24 | L 2.69 | P 3.19 | C 2.73 | W 2.84 | A 2.89
I22: Y 2.48 | N 2.88 | G 2.98 | T 3.29 | E 3.89 | L 3.19 | S 2.63 | F 2.12 | R 3 | V 3.07 | D 3.98 | W 2.33 | P 3.25
H20: K 5.13 | S 5.18 | F 3.94 | I 4.59 | E 5.28 | G 4.34 | C 4.31 | P 4.86 | D 5.39 | R 4.24
